From the nanobody polyreactivity screen of Harvey et al. (2022)

Test: yeast display, Sf9 membrane polyspecificity reagent, FACS + sequencing; frameworks hold sequencing errors
How it was run: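 A synthetic nanobody library was expressed on Saccharomyces cerevisiae BJ5465 by galactose induction for 36–48 hours. The library was stained for 1 hour at 4 °C with 10% biotinylated, detergent-solubilized Sf9 membrane reagent and enriched with streptavidin microbeads before FACS. Low and high (top ~1%) gates were set on anti-HA fluorescence for expression and streptavidin fluorescence for reagent binding, and each polyreactivity label reflects the gate of origin.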

Row | Sequence | polyreactivity (PSR sort gate)
1 | QVQLVESGGGLVQAGGSLRLSCAASGFTFYNNAMGWYRQAPGKERELVAGIARRGGSTSYADSVKGRFTISRDNAKNSVYLQMNSLKPEDTEVYYCAKQDYSPYYPYDYWGLGTQVTVSS | high polyreactivity
2 | QVQLVESGGGLVQAGGSLRLSCAASGFTFDYYAMGWYRQAPGKERELVAAITRSGTRTYYADSVKGRFTISRDNAKNTVYLQMNSLKPEDTAVYYCNVEYPKRANLSDYWGQGTQVTVSS | high polyreactivity
3 | QVQLVESGGGLVQAGGSLRLTCAASASTFKPYAMGWDRQAPGKERELVAAINGSGGDTYYADSVKGRFTISRDNAKTTVYLQMNSLKPEDTAVYYCAAQWGYYNYWYGYWGQGSQVTVSS | low polyreactivity
4 | QVQLVESGGGLVQAGGSLRLSCAASGSIFPPNAMGWYRQAPGKERELVAGISQSGGSTYYADSVKGRFTISRDNAKNTVYLQMNSLKPEDTAVYYCARRSRVGYPLDSWGQGTQVTVSS | high polyreactivity
5 | QVQLEESGGGIVQAGGSLRLSCAASGSNYASNAMGWYRQAPRKERELVAAINSGDSTNYADSVKGRFTISRDNGKNTVYLQMNSLKTEDTAVYYCSRGLEERYDYWGQGTQVTVSS | low polyreactivity
6 | QVQLVESGGGLVQAGGSLRLSCAASGRIFGNNAMGWYRQAPGKERELVATITRRGGSTYYADSVKGRFTISRDNAKNTVYLQMNSLKPEDTAVYYCAADRWPYWVAFYSWGQGTQVTVSS | high polyreactivity
7 | QVQLVESGGGLVQAGGSHRLSCAASGFIFPYYTMGRYRQAPEKERELVAANRYSAGRTYYADSVKGRFTISRDIAKNTVYLQLNSLKPVDTAVYYCNAVSSGDMDYWGQGTQVTVSS | high polyreactivity
8 | QVQLVESGGGLVQAGGSLRLSCSASGSILVRYAMGWYRQSPGKERELVAAITSGGSTYADSVKGRFTISRDNAKNTVYLQMNSLKPEDTAVYYCARDYFNREAFDYWGQGTQVTVSS | low polyreactivity
9 | QDQLVESGGGLVQAGGSLRLSCAASGRIFYPYVMGWYRQAPGKERELVAAISDSTGSTYYADSVKGRFTISRDNAKNTVYLQMNSLKPEDTAVYYWGQGTQVTVSS | low polyreactivity
10 | QVQLVESGGGLVQAGGSLRLSCAASGRTFRSYAMGWYRQAPGKDRELVAAISYGGGRTFYADSVKGRFTISRDNEKNTVYLQMNSLKPEDTAVYYCNAAFPRSYRFDYWGQGTQLTVSS | high polyreactivity
11 | QVQLVESGGGLVQAGGSLRLSCAASGGTFRWNARGWYRQAPGKERELVAAITKSGGSTYYADSVKGRFTISRDIAKNTVYLQMNSLKPEDTAVYYCATDYLRRRDYWGQGTQVTVSS | high polyreactivity
12 | QVQLVESGGGLVQAGGSLRLSCAASGSTFGKYVMGWYRQAPGKERELVAAISRSGGSTYYADSVKGRFTISRDNAKNTVYFQMNSLKPEDTAVYYCATVGYGYDYWGQGTQVTVSS | high polyreactivity
13 | QVQLVESGGGLVQAGGSLRLSCAASGRTLGTNAMGWYRQAPGKERELVASISKRGGSTYYADSVKGRFTISRDNAKNTVYLQMNSLKPEDTAVYYCAALFLSHIYYYWGQGTQVTVSS | high polyreactivity
14 | QVQLVESGGGLVQAGGSLRLSCAASGFIFSLYAMGWYRQAPGKERELVAGISESGGSTYYADSVKGRFTISRDNAKNTVYLQMNSLKPEDTAVYYCNADDTVYFIKAGDYWGQGTQVTVSS | high polyreactivity
15 | QVQLVESGGGLVQAGGSLRLSCAASGHIFFYYTMGWYRPAPGKERELVAGITIGGSTNYADSVKGRFTISRDNAKNTVYLQMNSLKPEDTAVYYCNVVKYVYIYSYWEYYYWGQGTQVTVSS | low polyreactivity
16 | QVQLVESGGGLVQAGGSLRLSCAASGSTFLYNTMGWYRQAPGKERELVATITSRGDRTYYADSVKGRFTISRDNAKNTVYLQMNSLNPEDTGVYYCARDYGPYLSPENPAPMDYWGQGTQVTVSS | low polyreactivity

Row | Sequence | polyreactivity (PSR sort gate)
17 | QVQLVESGGGLVQAGGSLRLSCAASGSIFEIYAMGWYRQAPGKERQLVASITWSGGSTYYADSVKGRFTISRDNAKNTVYLQMNSLKPEDTAVYYCATDKLYGRTVRMDYWGQGTQVTVSS | low polyreactivity
18 | QVQLVESGGGLVQAGGSLRLSCAASGFTFWYYAMGWYRQAPGKERELVASISSIGGSTYYADSVKGRFTISRDNAKNTVYLQMNSLKPEDTAVYYCAARYKFLRGGVRRDYWGQGTQVTVSS | high polyreactivity
19 | QVQLVESGGGLVQAGGSLRLSCAASGRILRGYAMGWYRQAPGKERELVAAINSGGDTYYADSVKGRFTISRDNAKNTVYLQMNSLKPEDTAVYYCASDYWGWIYLYGDHLVDYRGQGTQVTVSS | low polyreactivity
20 | QVQLVESGGGLVQAGGSLRLSCAASGITFSYNAMGWYRQAPGKERELVAAISSNSDSTYYADSVKGRFTISRDNAKNTVYLQMISLKPEDTAVYYCADDTPDAPDYSGFYYWGQGTQVTVSS | low polyreactivity
21 | QVQLVESGGGLVQAGGSLRLSCAASGFTFEIYAMGWYRQAPGKEREFVASISWSVGSTYYADSVKGRFTISRDNAKNTVYLQMNSLKPEDTAVYYCNADWRHKYYHSYLYDYWGQGTQVTVSS | low polyreactivity
22 | QVQLVESGGGLHQAGGSLRLSCAASGSTYASNARGWYRQAPGKETELVAAITSRDASTYYADSVKGRFTISRDYAKNTVYLQMNRLKPEDTAVYYCATDGYSPAAFDYWGQGTQVTVSS | low polyreactivity
23 | QVQLVESGGGLVQAGGSLRLSCAASGRIFEPYTMGWYRQAPGKEREFVATITASGDSTYYADSVKGRFTISRDNAKNTVFLQMNSLKPEDTAVYYCAAAPFGGYEYDYWGQGTQVTVSS | high polyreactivity
24 | QVQLVESGGGLVQAGGSLRLSCVASGRIFARNAMGWYRQAPGKERELVAAISGSGVRTYYADSVKGRFTISRDNAKNTVYLQMNSLKPEDTAVYYCNAVSGGHRSRYGYWGQGTQVTVSS | high polyreactivity
25 | QVQLVESGGGLVQAGGSLRLSCAASGSTFKVYTMGWYRPAPGKERELVAAISGGGGSTYYADSVKGRFTISRDNAKNTVYLQMNSLNPEDTAVYYCAAQKRGPGYPYYYWGQGTQVTVSS | high polyreactivity
26 | QVQLVESGGGLVQAAGSLRLSCAASGITFVTYDRGWYRQAPGKEWELVAAISRSGVRTYYADSVKWRFTISRDNAKNTVYLQMNSLKPEDTAVYYCAAERKNKYDYWGLGTQVTVSS | high polyreactivity
27 | QVQLVESGGGLVQAGGSLRLSCAASGLIFPFYTMGWYRQAPGKERELVASISSGASTYYADSVKGRFTISRDNAKNTVYLQMNSLKPEDTAVYYCNADTFAWEGQRKWFAYDYWGQGTQVTVSS | low polyreactivity
28 | QVQLVESGGGLVQARGSLRLSCAASVSTFGGNAMGWYRQAPGKERQLVAAISCIGGGTYYADSVKGRFTISRDNAKNTVYLQMKSLKPEYTAVYYCAAKIFIRVHYYSYRMYYWGQGTQLTVSS | low polyreactivity
29 | QVQLVESGGGLVQAGGSLRLSSAASGSIIQSNAIGGYRQAPGTERELVAAISYRGSRTYYADSVKGRFTISRDNAKNTVYIQMNSLKPDDTAVYYCAAVYRTYGIGPNNYWGQGTQVTVSS | high polyreactivity
30 | QVQLEESGGGLVQAGGSLRLSCAASGSIFTDYAMGSYGQAPGKERELVAAITSGGSTNYADSVKGRFTISRDNAKNTVYLQMNSLKPEDTAVYYCNADDYWLDSWSSDLWYDYWGQGTQVTVSS | low polyreactivity
31 | QVQLVESGGGLVQAGGSLRLSCAASGSTFDVYAKGWYRQAPGKEWELVAAISRSGGSTYYADSVKGRFTISRDNAKNTVYLQMNSLKPEDTAVYYCNPRLARWGSDEYNYWGQGTQETVSS | low polyreactivity
32 | QVQLVESGGGLVQAGGSLRLSCAASGRTFVSYAMGWYRQAPGKERELVAAIRWGTGSRTYYADSVKGRFTISRDNAKNTVYLQMNSLKPEDTAVYYCAKTDWYPYGYWGQGTQVTVSS | low polyreactivity
